Experimental data taken from patent publication US12351834B2, “Compositions and methods for the treatment of ornithine transcarbamylase deficiency” (Arcturus Therapeutics, Inc., priority 2020, dated 2025).

B1: 1799.7 (nucleic acid)
chain: ATGCTGTTCAACCTGCGCATCCTGCTGAACAACGCCGCCTTCCGCAACGGCCACAACTTCATGGTGCGCAACTTCCGCTGCGGCCAGCCCCTGCAGAACAAGGTGCAGCTGAAGGGCCGCGACCTGCTGACCCTGAAGAACTTCACCGGCGAGGAGATCAAGTACATGCTGTGGCTGAGCGCCGACCTGAAGTTCCGCATCAAGCAGAAGGGCGAGTACCTGCCCCTGCTGCAGGGCAAGAGCCTGGGCATGATCTTCGAGAAGCGCAGCACCCGCACCCGCCTGAGCACCGAGACAGGCTTCGCCCTGCTGGGCGGCCACCCCTGCTTCCTGACCACCCAGGACATCCACCTGGGCGTGAACGAGAGCCTGACCGACACCGCCCGCGTGCTGAGCAGCATGGCCGACGCCGTGCTGGCCCGCGTGTACAAGCAGAGCGACCTGGACACCCTGGCCAAGGAGGCCAGCATCCCCATCATCAACGGCCTGAGCGACCTGTACCACCCCATCCAGATCCTGGCCGACTACCTGACCCTGCAGGAGCACTACAGCAGCCTGAAGGGCCTGACCCTGAGCTGGATCGGCGACGGCAACAACATCCTGCACAGCATCATGATGAGCGCCGCCAAGTTCGGCATGCACCTGCAGGCCGCCACCCCCAAGGGCTACGAGCCCGACGCCAGCGTGACCAAGCTGGCCGAGCAGTACGCCAAGGAGAACGGCACCAAGCTGCTGCTGACCAACGACCCCCTGGAGGCCGCCCACGGCGGCAACGTGCTGATCACCGACACCTGGATCAGCATGGGCCAGGAGGAGGAGAAGAAGAAGCGCCTGCAGGCCTTCCAGGGCTACCAGGTGACCATGAAGACCGCCAAGGTGGCCGCCAGCGACTGGACCTTCCTGCACTGCCTGCCCCGCAAGCCCGAGGAGGTGGACGACGAGGTGTTCTACAGCCCCCGCAGCCTGGTGTTCCCCGAGGCCGAGAACCGCAAGTGGACCATCATGGCCGTGATGGTGAGCCTGCTGACCGACTACAGCCCCCAGCTGCAGAAGCCCAAGTTCTGA
modifications: 100% 5-methoxyuridine; lipid formulation
B2: Construct 2260: mRNA construct, SEQ ID NO: 251, encodes modified human OTC protein of SEQ ID NO: 4 (nucleic acid)
sense: AGGAUUAUUACAUCAAAACAAAAAGCCGCCACCAUGCUGGUAUUCAACCUGCGCAUCCUGCUGAACAACGCCGCCUUCCGCAACGGCCACAACUUCAUGGUGCGCAACUUCCGCUGCGGCCAGCCCCUGCAGAACCGGGUGCAGCUGAAGGGCCGCGACCUGCUGACCCUGAAGAACUUCACCGGCGAGGAGAUCCGGUACAUGCUGUGGCUGAGCGCCGACCUGAAGUUCCGCAUCAAGCAGAAGGGCGAGUACCUGCCCCUGCUGCAGGGCAAGAGCCUGGGCAUGAUCUUCGAGAAGCGCAGCACCCGCACCCGCCUGAGCACCGAGACAGGCUUCGCCCUGCUGGGCGGCCACCCCUGCUUCCUGACCACCCAGGACAUCCACCUGGGCGUGAACGAGAGCCUGACCGACACCGCCCGCGUGCUGAGCAGCAUGGCCGACGCCGUGCUGGCCCGCGUGUACAAGCAGAGCGACCUGGACACCCUGGCCAAGGAGGCCAGCAUCCCCAUCAUCAACGGCCUGAGCGACCUGUACCACCCCAUCCAGAUCCUGGCCGACUACCUGACCCUGCAGGAGCACUACAGCAGCCUGAAGGGCCUGACCCUGAGCUGGAUCGGCGACGGCAACAACAUCCUGCACAGCAUCAUGAUGAGCGCCGCCAAGUUCGGCAUGCACCUGCAGGCCGCCACCCCCAAGGGCUACGAGCCCGACGCCAGCGUGACCAAGCUGGCCGAGCAGUACGCCAAGGAGAACGGCACCAAGCUGCUGCUGACCAACGACCCCCUGGAGGCCGCCCACGGCGGCAACGUGCUGAUCACCGACACCUGGAUCAGCAUGGGCCAGGAGGAGGAGAAGAAGAAGCGCCUGCAGGCCUUCCAGGGCUACCAGGUGACCAUGAAGACCGCCAAGGUGGCCGCCAGCGACUGGACCUUCCUGCACUGCCUGCCCCGCAAGCCCGAGGAGGUGGACGACGAGGUGUUCUACAGCCCCCGCAGCCUGGUGUUCCCCGAGGCCGAGAACCGCAAGUGGACCAUCAUGGCCGUGAUGGUGAGCCUGCUGACCGACUACAGCCCCCAGCUGCAGAAGCCCAAGUUCUGAGGUCUCUAGUAAUGAGCUGGAGCCUCGGUAGCCGUUCCUCCUGCCCGCUGGGCCUCCCAACGGGCCCUCCUCCCCUCCUUGCACCGGCCCUUCCUGGUCUUUGAAUAAAGUCUGAGUGGGCAGCAUCUAG

Assays:
Format in all cases: in vivo, mouse
Spf/ash mice [1] = assay: PK/PD analysis of human OTC expression and urinary orotate in Spf/ash mice; conditions: 1 mg/kg and 3 mg/kg IV, 96 hours post dose
Method: Spf/ash mice received an IV injection with either PBS or certain lipid-formulated OTC-mRNAs from Table 5 at 1 mg/kg and 3 mg/kg using two different uridine chemistries (N1MPU and 5MeOU). WT mice were used as internal controls. Human-specific OTC levels were measured by MRM, and urinary orotate was determined in each sample and normalized to creatinine.

Spf/ash mice [2] = assay: Survival of Spf/ash mice on a high protein diet; conditions: 0.3, 1 and 3 mg/kg IV on days 0, 7, 14, 21, 28
Method: Spf/ash mice received an IV injection with either PBS or lipid-formulated OTC-mRNA (1799.7) at three doses: 0.3 mg/kg, 1 mg/kg and 3 mg/kg. Mice were fed a high protein diet from day 0 to the end of the study. Treated animals were injected intravenously on days 0, 7, 14, 21 and 28 (indicated by the arrows in the chart in FIG. 17). Survival rates were determined every week. The plot in FIG. 17 summarizes the entire study timeline and the survival rates observed for the different groups.
The pharmacology of the OTC mRNA lipid formulations was investigated in studies that elucidated their efficacy and potential mechanism of action in a series of studies in the hemizygous male Spf/ash mouse model. […] The hypomorphic Spf/ash mouse shares similar biochemical features with OTCD patients, including elevated concentrations of urinary orotic acid (orotate), blood glutamine, and decreased concentrations of blood citrulline and arginine. The hemizygous male Spf/ash mice used in the pharmacology studies were derived by crossing B6EiC3Sn a/A-Otcspfash/J Het mice x B6EiC3SnF1/J mice as homozygous mice are not viable. […]
To study the effect of different ionizable cationic lipids on survival rate, Spf/ash mice received an IV injection with either PBS or one of three different lipid-formulated OTC-mRNA (1799.7) compositions. […] Survival rates were determined daily. […]

Spf/ash mice [3] = assay: Urinary orotate levels in Spf/ash mice
Method: Spf/ash mice received an IV injection with either PBS or lipid-formulated OTC-mRNA construct 1799.7 (5MeOU chemistry) at three different doses: 0.3 mg/kg, 1 mg/kg and 3 mg/kg. Urinary orotate levels were determined in untreated wild-type (WT) and both untreated and treated Spf/ash mice. A urinary orotate time course was performed in Spf/ash and WT mice, and urinary orotate levels were measured at each timepoint. The results can be seen in FIG. 12. Urinary orotate was normalized to creatinine, which is represented in the graph on the y-axis throughout the time course and served as a proof-of-concept of functional restoration of OTC activity post-injection.
Spf/ash mice received an IV injection with either PBS or lipid-formulated (as described in Example 1) OTC-mRNA at 1 mg/kg and 3 mg/kg. WT mice were included as an internal control. Urinary orotate levels were measured at 0, 1, 3, 7 and 14 days, and levels were normalized to creatinine (FIG. 16).

Spf/ash mice [4] = assay: Western Blot of mitochondrial and cytosolic liver fractions of Spf/ash mice
Method: Spf/ash mice received an IV injection with either PBS or lipid-formulated (as described in Example 1) OTC-mRNAs at 1 mg/kg and 3 mg/kg. WT mice were used as internal controls. Livers were harvested from the mice and sample fractionation was performed on the liver samples, separating the cytosolic and mitochondrial fractions. OTC levels were measured by Western Blot (WB) using human specific (hOTC) and crossreactive (crOTC) antibodies (FIG. 14). […] (CoxIV) was used as a mitochondrial control. OTC protein expression levels were measured by near-infrared fluorescent imaging systems and normalized to total protein.
Spf/ash mice received an IV injection with either PBS or lipid-formulated OTC-mRNAs at 3 mg/kg. WT mice were used as internal controls. Sample fractionation was performed on liver samples harvested from the mice, separating the cytosolic and mitochondrial fractions. OTC levels were measured by Western Blot using a human specific antibody. OTC protein expression levels were measured by near-infrared fluorescent imaging systems and both fractions, normalized to total protein, were plotted (FIG. 15). […] The 2260 compound includes a modified mitochondrial signaling peptide sequence provided herein.

Molecule	PK/PD correlation between hOTC protein expression and reduction of urinary orotate (Spf/ash mice [1])	dose dependence of survival rate (Spf/ash mice [2])	survival during hyperammonemic crisis vs PBS (Spf/ash mice [2])	urinary orotate levels in treated Spf/ash mice vs WT mice (Spf/ash mice [3]; 3 mg/kg IV, lipid-formulated)	duration of sustainable reduction of urinary orotate levels (Spf/ash mice [3]; 3 mg/kg IV, lipid-formulated, normalized to creatinine)	targeting of expressed OTC to the mitochondria (Spf/ash mice [4]; 1 mg/kg and 3 mg/kg IV, liver fractions)	human OTC protein level in mitochondrial fraction (Spf/ash mice [4]; 3 mg/kg IV, liver, normalized to total protein)	dose dependence of urinary orotate reduction (Spf/ash mice [3]; 1 mg/kg and 3 mg/kg IV)	duration of reduced urinary orotate levels (Spf/ash mice [3]; 1 mg/kg and 3 mg/kg IV, measured at 0, 1, 3, 7 and 14 days)
B1	high PK/PD correlation	dose-dependent	greater survival	comparable to urinary orotate levels in WT mice	up to 14 days	–	–	–	–
B2	–	–	–	–	–	can efficiently target the mitochondria	delivers more human OTC than 2016 in the mitochondria	dose-dependent manner	up to 14 days
